Source: the supplement of paper PMC9170038

Key:
MS2 coat protein [1] = experiment: apparent KD of MS2 coat protein, switch ON state; designed switch direction (-1 OFF switch, 1 ON switch): -1; higher = weaker reporter binding; details: FMN input: 0 or 200 uM; Eterna round: R93 (includes R88 designs)
In short: (§1)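 Apparent KD per design is the median of normalised cluster binding-curve fits. Designed RNA switches transcribed on-chip from Illumina sequencing clusters were titrated with SNAP-549-labelled MS2 coat protein in twofold steps from 0.7 or 1.5 nM to 3 µM, with 0.8–1.5 h down to 10–20 min per step. Buffer: 100 mM Tris-HCl pH 7.5, 80 mM KCl, 4 mM MgCl2, without or with constant ligand.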

MS2 coat protein [2] = experiment: apparent KD of MS2 coat protein, switch OFF state (with FMN for OFF switches, without FMN for ON switches); designed switch direction (-1 OFF switch, 1 ON switch): -1; higher = weaker reporter binding; details: FMN input: 0 or 200 uM; Eterna round: R93 (includes R88 designs)
In short: as §1

Row | Sequence | apparent KD of MS2 coat protein (MS2 coat protein [1]) | apparent KD of MS2 coat protein (MS2 coat protein [2])
1 | AACUAGUCAGGAUAUACGAACAUGUCAAAAGACAUGAAGGGACAUGAGGAUCACCCAUGUAGAAGGGACUAGCA [74%, Web mod - With 2 less G's] | 44 nM | 148 nM
2 | AACUCGUCAGGAUAUGCGCACAGAUAAUACGCUACACAAAUGCAGAAGGGACAUGAGGAUCACCCAUGUAAAUA [JR_Exc004_Sub504] | 42.6 nM | 31.2 nM
3 | AACUGACAUGAGGAUCACCCAUGUCAGGAUAUGACUUCGAAAAAUAAAAUAAACGAUGUCAGAAGGGACAUGGG [Design 68: Sub-opt O] | 21.2 nM | 19 nM
4 | AACUGACAUGAGGAUCACCCAUGUCAGGAUAUGACUUGACGAAAAAAAACACGUCAUGUCAGAAGGGACAUGAA [Design 88: Sub-opt YB] | 15 nM | 16.9 nM
5 | AACUGACAUGAGGAUCACCCAUGUCAGGAUAUGAUAUGUAAAAAAAUAAAAAUACUUAUCAGAAGGGACAUGGG [Design 39: Sub-opt A] | 18.2 nM | 20 nM
6 | AACUGACAUGAGGAUCACCCAUGUCAGGAUAUGCUUCAUAAAAACAAACAAAAAUGAUGCAGAAGGGACAUGGA [Design 30 :P Sub-opt 6] | 19.6 nM | 32.3 nM
7 | AACUGGUGAGGAUAUCUGGAUAGGAAAAAGAAAACCUAUCCAGAGAAGGCACAUGAGGAUCACCCAUGUAAAAA [JL cataway mod 9] | 56 nM | 51.9 nM
8 | AAGAAACAUGAGGAUCACCCAUGUGAGGAUAUACAAAAGAAAAGAAAAGAAAGAAGAAGUAGAAGGCACAAAGG [Djedkare Shemai] | 22.5 nM | 20.3 nM
9 | AAGAAACAUGAGGAUCACCCAUGUGAGGAUAUCGAAAAGAAAAGAAAAGAAAGAAGAAUGAGAAGGCACAAAGG [Shed—] | 30.9 nM | 29.8 nM
10 | AAGAAACAUGAGGAUCACCCAUGUGAGGAUAUUCAAGAAAGAAAGAAAGAAAGAAGAAGAAGAAGGCACAAAGG [Lucius Seius Strabo] | 29 nM | 32 nM
11 | AAGAACCAAGGAUAUACAAAAUAAAAGAAAAGAAAGAAAGAACAUGAGGAUCACCCAUGUAGAAGGUGGAAGAA [Khaankhre Sobekhotep] | 47.7 nM | 41.6 nM
12 | AAGAACCAAGGAUAUACAUGAGGAUCACCCAUGUAAAAGAAAGAAGGGAAAGAGAAAAGUAGAAGGUGGAAGAA [Djedkaure Shebitku] | 28.3 nM | 22.7 nM
13 | AAGAACGAAGGAUAUACAUGAGGAUCACCCAUGUAAAAGAAAGAAAGGGAAAAGAAAAGUAGAAGGUCGAAGAA [Sekhemkheperre Osorkon I] | 28.3 nM | 31.2 nM
14 | AAGAACGGAGGAUAUACAUGAGGAUCACCCAUGUAAAAGAAAGAAGGGAAAGAGAAAAGUAGAAGGCCGAAGAA [Usermaatre-setepenamun Pedubast] | 28.1 nM | 50.8 nM
15 | AAGAACGUAGGAUAUACUAAAGAAAUGAAAAGAAAUAAAGAACAUGAGGAUCACCCAUGUAGAAGGACGAAGAA [Nebdjefare] | 29.1 nM | 25.2 nM
16 | AAGAACUCAGGAUAUACAUGAAAGAAAGAAAAGAAAAGAAAACAUGAGGAUCACCCAUGUAGAAGGGAGAAGAA [EteRNA is fun!] | 39.7 nM | 30.6 nM
17 | AAGAACUCAGGAUAUACUAAAGAAAUGAAAAGAAAGAAAGAACAUGAGGAUCACCCAUGUAGAAGGGAGAAGAA [Qareh Khawoserre] | 86.4 nM | 35.4 nM
18 | AAGAACUGAGGAUAUACAUGAGGAUCACCCAUGUAAAAGAAAGAAAGGGAAAAGAAAAGUAGAAGGCAGAAGAA [Menmaatre-setpenptah Ramesses XI] | 51.1 nM | 59.4 nM
19 | AAGAAGCAAGGAUAUACAUGAGGAUCACCCAUGUAAAAGAAAGAAAAGGGAAAGAAAAGUAGAAGGUGCGAAAA [Ruby 70] | 29.9 nM | 51.9 nM
20 | AAGAAGGAAGGAUAUACAUGAAAGAAAGAAAAGAAAAGAAAACAUGAGGAUCACCCAUGUAGAAGGUCCUAGAA [EteRNA is fun!] | 39.6 nM | 80.5 nM
21 | AAGAAGGAAGGAUAUACAUGAGGAUCACCCAUGUAAAAGAAAGAGGGAAAAGAGAAAAGUAGAAGGUCCAAGAA [Ptolemy V Epiphanes] | 26.5 nM | 30.3 nM
22 | AAGAAGGGAGGAUAUACAAAAUAAAAGAAAAGAAAGAAAGAACAUGAGGAUCACCCAUGUAGAAGGUCCAAGAA [Imyremeshaw] | 48.1 nM | 71 nM
23 | AAGAAGUCAGGAUAUGCUGCUCGUCACAAAAGUGAUGAGUAGCAGAAGGGACAUGAGGAUCACCCAUGUAAAAA [Opal 33] | 49.1 nM | 42 nM

Row | Sequence | apparent KD of MS2 coat protein (MS2 coat protein [1]) | apparent KD of MS2 coat protein (MS2 coat protein [2])
24 | AAGAAGUGAGGAUAUCGAAGACUGUCGAAAAGACAGUCGAACGAGAAGGCACAUGAGGAUCACCCAUGUGGGAA [Marsurpial 65% 6] | 77.1 nM | 171 nM
25 | AAGAAGUGAGGAUAUGCUGCUCGUCACUUGCGUGAUGAGUAGCAGAAGGCACAUGAGGAUCACCCAUGUAAAAA [Mat - Exaclusion 4 - Eli mod - D2] | 34.8 nM | 45.7 nM
26 | AAGAAGUGAGGAUAUGUAUCAGUAUAGUUGCCUAUACUGAUGUAGAAGGCACAUGAGGAUCACCCAUGUCCUAA [Exclusion4-cac1] | 21.7 nM | 30.8 nM
27 | AAGAAUGCAGGAUAUACAUGAGGAUCACCCAUGUAAAAGAAAGAAAGGGAAAAGAAAAGUAGAAGGGCAAAGAA [Usermaatre-setepenamun Osorkon II] | 35.8 nM | 36.5 nM
28 | AAGAAUGGAGGAUAUACAAGAAAGAAAGAAAAGAAAAGAAAACAUGAGGAUCACCCAUGUAGAAGGCCAUAGAA [EteRNA is fun!] | 24.9 nM | 13.8 nM
29 | AAGAAUGGAGGAUAUACAUAAAAGAAAGAAAAGAAAAGAAAACAUGAGGAUCACCCAUGUAGAAGGCCAUAGAA [EteRNA is fun!] | 24.6 nM | 15.3 nM
30 | AAGACUACAGGAUAUACAUGAGGAUCACCCAUGUAACUGACAAGUAGAUGACGGAGAAGUAGAAGGGUAGUCAA [Ruby 36] | 18.5 nM | 31.8 nM
31 | AAGACUACAGGAUAUACAUGAGGAUCACCCAUGUAACUGACGGAUAGAUGACGGAGAAGUAGAAGGGUAGUCAA [Ruby 38] | 16.9 nM | 26.4 nM
32 | AAGAGUAGAGGAUAUACGAAAAAAGAGUCGAAAGACUCGGGACAUGAGGAUCACCCAUGUAGAAGGCUACUCAA [Hyphema Seclusion Mod 62% 5] | 22 nM | 110 nM
33 | AAGAUCAGAGGAUAUACAGAAGGUGAUGAAAACAUCGCCAAACAUGAGGAUCACCCAUGUAGAAGGCUGAUCAA [JL EX2 2] | 119 nM | 204 nM
34 | AAGCCACAUGAGGAUCACCCAUGUAAGGAUAUGAACGAAAAUAAAUAAAAAUAAAAGUUCAGAAGGUACAAAAA [66%, Wbt, 23] | 27.1 nM | 25.3 nM
35 | AAGGAUCGAGGAUAUACAUAGAUACAGAUACAUGUAGACGUACAUGAGGAUCACCCAUGUAGAAGGCGAUCAUA [AJ 27] | 150 nM | 255 nM
36 | AAGGGACAUGAGGAUCACCCAUGUGAGGAUAUGCUAUGGAAAUAAAAAAUAAAACAUAGCAGAAGGCAUAAAAA [Mat - Exclusion 1 - Eli mod - D38] | 69.3 nM | 60.5 nM
37 | AAGUCGUUAGGAUAUAUAUGGAUAUACAUUUAUGUAGAACUACAUGAGGAUCACCCAUGUAGAAGGAACGAAUA [AJ 56] | 24.3 nM | 27.9 nM
38 | AAGUUGCUAGGAUAUACUUGGGCAACAAAUGAACCAAUAUAACAUGAGGAUCACCCAUGUAGAAGGAGCAGAAA [JR_Exc002_Sub301] | 35.2 nM | 63.5 nM
39 | ACCAAUGGAGGAUAUACAUGAGGAUCACCCAUGUAUAACCUACAUAGGUGAAAAAAAUGUAGAAGGCCAUUGGA [EX3 233: Super Stable 33] | 31.2 nM | 16.9 nM
40 | ACCGAUCGAGGAUAUACAUGAGGAUCACCCAUGUAACCCAGAAGAAAGGCCUCAGGAUGUAGAAGGCGACGCAA [JR_Exc003_Sub406] | 16.3 nM | 17.7 nM
41 | AGAAAACAUGAGGAUCACCCAUGUAAGGAUAUGCUGAAAAAACACUGGAAACAGUGCAGCAGAAGGUACAAAGA [Mat - Exclusion 1 - Eli mod - D99] | 22.1 nM | 43.3 nM
42 | AGAAAACAUGAGGAUCACCCAUGUCAGGAUAUGAAAAAGAAAAGAAAAGAAAGAAGAAUCAGAAGGGACAAGAA [Senedj] | 38.2 nM | 40.3 nM
43 | AGAAACGUAGGAUAUACAUGAGGAUCACCCAUGUAAAGAAAGAAGGGAGAAAGAAGAAGUAGAAGGACGAAGAA [JR_Exc003_Sub003] | 19.2 nM | 59.9 nM
44 | AGAAAGCGAGGAUAUACUAAGAAACCUCAAAGAAAGAAGAAACAUGAGGAUCACCCAUGUAGAAGGCGCAAAGA [JR_Exc002_Sub002] | 28.3 nM | 70.8 nM
45 | AGAAAGUGAGGAUAUACGAAACCAGCCUAAAUGGCUGGAAAGUAGAAGGCACAUGAGGAUCACCCAUGUAAAGA [Ex4 sub 1] | 32.3 nM | 43.4 nM
